Here are results for two substances from PMC3032881.

Experiment [1] concerns the target HLA A*0201 on the surface of TAP deficient T2 cells (human (endogenous in T2 cells)). The experiment in a line: flow cytometry on cells; T2-binding assay: TAP deficient T2 cells with peptide at 100, 50, 10 and 1 μM in AIM-V, 10 min 37 °C, room temperature overnight, 2 h 37 °C; surface HLA A*0201 stained with anti-human HLA A*0201:RPE; MFI fitted (log(agonist) vs. response) to logEC50. (In flow cytometry, cells or beads pass a laser one at a time.)

Experiment [2] deals with soluble recombinant HLA A*0201 (α chain tagged with a biotinylation sequence, with β2m). The experiment in a line: SPR; real time pMHC stability assay, BIAcore 3000, CM5 chip; ~500 RU of biotinylated refolded pMHCI immobilised on streptavidin; flow 10 μl/min for 15,000 s; Langmuir dissociation analysis converted to half-life.

In experiment [1], NY-ESO-1 157-165 peptide … displayed a LogEC50 of -3.53 M. For the same substance, in experiment [2], the half-life amounted to 8.9 h and the koff worked out at 2.2e-05 s⁻¹.

Turning to PSA 178-187 peptide …, the LogEC50 in experiment [1] is -4.3 M. In addition, in experiment [2], the half-life stood at 16.9 h and the koff was found to be 1.1e-05 s⁻¹.

What is called half-life is the time needed for the level to fall by half in the phase considered. What is called koff is a measure of how fast the partners let go of each other.
